Consider 167 variants from the RNAGym collection of RNA variant scans (doi:10.7554/elife.80360).

Sequences and labels used below:
B1: HDV Ribozyme (parent)
chain: GGCCGGCAUGGUCCCAGCCUCCUCGCUGGCGCCGGCUGGGCAACAUUCCGAGGGGACCGUCCCCUCGGUAAUGGCGAAUGGGACCCA

Variants of B1 are the subject of this series. Nature of the series: self-cleavage, relative activity (ratio to wild type); higher = more cleavage; co-transcriptional.
Take C30G C49A: the self-cleavage stood at 0.116. Turning to G5C U72A, the self-cleavage turned out to be 0.095. For C75U C84A, the self-cleavage turned out to be 0.237. Turning to A42U A83C, the self-cleavage came to 0.119.

Consider A8G G82A, for which the self-cleavage was determined as 0.237. With G34C G82A, the self-cleavage was found to be 0.0308.

As to G34U C49G, the self-cleavage came out at 0.166. On to C41A G54U, for which the self-cleavage worked out at 0.862. Then G53C G67A, with 0.723. As for C26A C84A, the self-cleavage was 0.787. Under G54A G81C stands 0.26; under G34C G74U, 0.136. Under A43C C85A stands 0.361; under C3U C32G, 0.0769; under C41G C66A, 0.96. Consider C26G C57G, for which the self-cleavage turned out to be 1.04. In the case of A8U U20C, the self-cleavage was 0.

As for G40C A45C, the self-cleavage came to 0.0845. As to G5U A83U, the self-cleavage was 0. Take U37C C58A: the self-cleavage worked out at 1.22. A8G G38C: the self-cleavage came to 0.138. Under G25A G80A stands 0.126; under U27G G28U, 0.612; under G34A G54U, 0.17.

As for A16G U60A, the self-cleavage is 1.25. In the case of C7U C85U, the self-cleavage stood at 0.886. With U20G C61G, the self-cleavage came out at 0.0536. Consider C33G C75G, for which the self-cleavage came out at 0.0426.

With G34A G52U, the self-cleavage turned out to be 0.143.

For C3G C85U, the self-cleavage is 0.751.

As for G2C G35U, the self-cleavage came out at 0.0747.

On to G2U C15U, for which the self-cleavage turned out to be 0.

On to C4A A56U, for which the self-cleavage was 0.321. Consider C21G C61G, for which the self-cleavage is 0.0386. On to C62G A87G, for which the self-cleavage worked out at 0.716. Turning to C13A C36G, the self-cleavage turned out to be 0.192.

Regarding G2C C48A, the self-cleavage is 0. For G5C C15A, the self-cleavage worked out at 0.262. Take G54A G55U: the self-cleavage turned out to be 0.993.

For the variant C3G U9G, the self-cleavage worked out at 0.789. For the variant G35U A77U, the self-cleavage is 0.175. Take G17A C18G: the self-cleavage was 0.095. For the variant C44U A71U, the self-cleavage came to 0.972. Then U37A A70C, with 0.0639; and G68C A87C, with 0.73; and C21A G67C, with 0.137. Under G1C C62A stands 0.101.

On to A45C G54C, for which the self-cleavage is 0.653. Consider G1C G28A, for which the self-cleavage is 0.0405.

For G11C C66U, the self-cleavage stood at 0.289.

As to C30A C75U, the self-cleavage was found to be 0.101. Under U23G A42G stands 0.0665; under U60A G68U, 1.11. With G17A G52A, the self-cleavage amounted to 0.831.

Regarding G40C U60C, the self-cleavage was determined as 0.332. On to G1A C48G, for which the self-cleavage stood at 0.199. As for G6C C33A, the self-cleavage worked out at 0.172. Consider A56U G68U, for which the self-cleavage came to 1.01.

Turning to G25C G34C, the self-cleavage was 0.0426. Turning to G6U C62U, the self-cleavage is 1. C26G G54U: the self-cleavage worked out at 0.941. In the case of C41G G82U, the self-cleavage is 0.157. Consider A45U G80U, for which the self-cleavage worked out at 0.153. As for G31A A78C, the self-cleavage was 0.169. Under G10U C85A stands 1.15; under C14G C57G, 0.782; under C22U C85U, 0.577. On to A51G A77G, for which the self-cleavage was found to be 1.02. Then G25C A71C, with 0.0475; and C19U U65G, with 0.182; and G31U G59A, with 0.546. In the case of C3A A45G, the self-cleavage was found to be 0.469.

Regarding G17U U27G, the self-cleavage is 0.522. Turning to U37A U46A, the self-cleavage came to 0.185. In the case of C33A C63G, the self-cleavage amounted to 0.283. Under C36A C63G stands 0.208; under G10U C62A, 0.787. C4A G53A: the self-cleavage came to 0.201. As to C24U A71G, the self-cleavage stood at 0.648. For A16U C85U, the self-cleavage is 1.03. Consider C21G G76U, for which the self-cleavage came out at 0.0583. As for U37G G74C, the self-cleavage was determined as 0.0361. For A42G C44G, the self-cleavage was determined as 0. For the variant G39A C66A, the self-cleavage was 0.441. As to C18G G74C, the self-cleavage was determined as 0.142.

Turning to G54C U65A, the self-cleavage came out at 0.721. For the variant G17U C44G, the self-cleavage came out at 0.222. As for U20G C63U, the self-cleavage was determined as 0.297.

With C15G C41U, the self-cleavage turned out to be 0.277. On to C66U G68A, for which the self-cleavage is 0.92. As to C21A C30U, the self-cleavage was determined as 0.0519.

On to C22A C49G, for which the self-cleavage was 0.143. Under C48U G73A stands 0.526; under G5C G34C, 0; under U20A G82C, 0. Take G38C C57G: the self-cleavage was 0.356. As to G34U A70G, the self-cleavage came to 0.0997. Under U37G G50C stands 0.185; under G35A G54U, 0.743; under C36U G76U, 1.05. As to C4U G28A, the self-cleavage worked out at 0.0845. Take G29A U65C: the self-cleavage was found to be 0.17.

For G54C G81C, the self-cleavage worked out at 0.196.

With U23G U37A, the self-cleavage is 0.0678. As for C30A A45U, the self-cleavage was 0.375.

In the case of C48G G53C, the self-cleavage turned out to be 0.776. For the variant G29A A43U, the self-cleavage stood at 0.0252.

Turning to G34C U47C, the self-cleavage stood at 0.185.

Take G17U C75G: the self-cleavage came out at 0.0594.

Take C44G U65A: the self-cleavage turned out to be 0.443. Under C3G A77U stands 0.0297; under C63G G82U, 0.289; under C44A G54U, 0.794.

In the case of C57G U69G, the self-cleavage came out at 1.2.

With G11A C15G, the self-cleavage amounted to 0.138. For C36G C44G, the self-cleavage was 0. Regarding C26A G34U, the self-cleavage came out at 0.683. Under G38U C64G stands 0.177; under U20C U65G, 0.145; under C64U G68C, 0.305.

Consider U46A G74C, for which the self-cleavage stood at 0.297. Under A8U G80A stands 0.227. Under C62A C84A stands 0.862. Then C4U G34U, with 0.424; and G38A G50U, with 0.157; and G28U U79G, with 0.0978. Regarding C19U C58A, the self-cleavage is 0.086. Under G29U G82U stands 0.095. Regarding C4G C30A, the self-cleavage worked out at 0.0601. Then C7A A56C, with 0.831.

Consider G67U A83U, for which the self-cleavage was 0.469. Regarding U27C G67A, the self-cleavage stood at 0.886. Then C4U G31C, with 0.0339; and G39A G59A, with 0.426; and U12C G35U, with 0. On to C22U U23G, for which the self-cleavage came to 0.246. Under A8G G39U stands 0.54; under C14G A77G, 0.415. With U27A G59A, the self-cleavage was 0.919. Take C36A G53A: the self-cleavage worked out at 0.218. Under G1U C33U stands 0.436; under G11U A43C, 0.0594; under G17C A43G, 0. Under C57A C63A stands 1.25; under U20G C62G, 0.0755; under G25C G39A, 0.119. Under C48U A77G stands 0.612; under G6C U65G, 0.115; under G54A A56C, 1.03.

On to A8G G40C, for which the self-cleavage stood at 0.369.

For the variant C19U G50C, the self-cleavage was 0.332. Then U9C G40A, with 0.997; and G25A C85A, with 0.237. Consider U23C C62G, for which the self-cleavage turned out to be 0.987. On to G38U G40U, for which the self-cleavage worked out at 0.19. Turning to C22A C62U, the self-cleavage was 0.387. Then G54U U79G, with 0.266.

Turning to C3G G68A, the self-cleavage is 0.51. G11C U60A: the self-cleavage was 0.0831.

U65G C85A: the self-cleavage was 1.11. For the variant C32U G54U, the self-cleavage stood at 0.923. Then C13U G34U, with 0.0268. Take G34A C85U: the self-cleavage is 0.163. Under G67A C86G stands 0.895; under A8C A16U, 1.16; under C7U G25U, 0.203. C64A G74C: the self-cleavage came out at 0.242.
